The source of these data is patent US20190092862A1 (GENERON SHANGHAI, published 2019).

Test [1] concerns the target T1, cynoCD3ε AA 1-27.Fc (cynomolgus CD3 antigen construct) (cynomolgus monkey; human, UniProt Q95LI5 22-48).
T1 construct: range 1-27; not shown: human IgG Fc
T1 chain (looked up): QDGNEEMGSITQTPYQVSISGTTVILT
Description: BLI (Octet QKe), antigen-Fc captured on AHC biosensor, ITAB1002 in solution. The method, then: (§1) The expressions of the antigen constructs is described in U.S. Pat. No. 8,846,042. The antigen constructs were diluted to 0.02 mg/mL with dilution(PBS, 0.1% BSA, 0.02% Tween-20, 0.05% NaN3), and then immobilized on an anti-hIgG Fc capture (AHC) biosensor. […] The control wells containing only PBS were also set up. The detection results were analyzed using ForteBio Data Acquisition and ForteBio Data Analysis software.
(In general: In BLI a coated tip is dipped into the sample, and binding shifts an interference pattern.)

Test [2] addresses cynoEpCAM.Fc (cynomolgus EpCAM antigen construct) (cynomolgus monkey; human). The test is described as above. As for the experimental part: as §1
For test [3], the target named is T2, huEpCAM.Fc (human EpCAM antigen construct) (human, UniProt P16422 24-265, limits assumed).
T2 construct: not shown: human IgG Fc
T2 sequence (looked up): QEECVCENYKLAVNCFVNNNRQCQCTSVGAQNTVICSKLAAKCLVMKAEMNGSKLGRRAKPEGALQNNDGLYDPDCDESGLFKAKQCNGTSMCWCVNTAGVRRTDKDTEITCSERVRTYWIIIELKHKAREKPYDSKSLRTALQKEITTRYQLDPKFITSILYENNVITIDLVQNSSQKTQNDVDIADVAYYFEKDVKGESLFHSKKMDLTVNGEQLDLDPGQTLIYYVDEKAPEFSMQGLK
The description is as above. The method, then: as §1

In test [4] the target is T3, cynomolgus monkey EpCAM on transfected CHO cells (CyEpCAM-CHO) (cynomolgus monkey).
T3 construct: whole, on cells; also called CHO cells expressing cynomolgus monkey EpCAM on the cell surface
Description: flow cytometry on CHO cells expressing cynomolgus monkey EpCAM (CyEpCAM-CHO). As for the experimental part: (§2) SW480 cells and CyEpCAM-CHO cells were trypsinized with 0.25% Trypsin-EDTA (Gibco), resuspended with a FACS buffer. […] Cells were then washed with the FACS buffer and resuspended in 50 μL FACS buffer. Mouse anti-Human IgG Fab Secondary Antibody PE conjugate(Invitrogen) were added, and allowed for incubation at 4° C. for 30 min. 150 μL FACS buffer was finally added, and the samples were analyzed using ACCURI® C6 Cytometer (BD Biosciences).
A general note: In flow cytometry, cells or beads pass a laser one at a time.

The target of test [5] is T4, human CD3 on human PBMC (human, UniProt P07766 23-207).
T4 construct: whole, on cells; also called hPBMC; huPBMC
Put plainly: flow cytometry (FACS) on human PBMC, detection with PE mouse anti-human lambda light chain, co-staining with CD4 antibody; y axis Binding rate (%). As for the experimental part:
Cells were washed with the FACS buffer once, resuspended in 50 μL FACS buffer, supplemented with CD4 Antibody (RFT-4g) APC-Cy7® conjugate(Invitrogen) and PE Mouse Anti-Human Light Chain […], (BD Pharmingen™), and incubated at room temperature for 45 min. 150 μL FACS buffer was finally added, and the samples were analyzed using ACCURI® C6 Cytometer (BD Biosciences).

For test [6], the target named is T2, huEpCAM.Fc (human EpCAM antigen …). Description: BLI (Octet QKe), antigen-Fc captured on AHC biosensor. As for the experimental part: as §1
Test [7] addresses T5, human EpCAM on SW480 cells (human, UniProt P16422 24-314).
T5 construct: whole, on cells; also called SW480 cells expressing human EpCAM; human colon cancer cell line SW480
T5 sequence (looked up): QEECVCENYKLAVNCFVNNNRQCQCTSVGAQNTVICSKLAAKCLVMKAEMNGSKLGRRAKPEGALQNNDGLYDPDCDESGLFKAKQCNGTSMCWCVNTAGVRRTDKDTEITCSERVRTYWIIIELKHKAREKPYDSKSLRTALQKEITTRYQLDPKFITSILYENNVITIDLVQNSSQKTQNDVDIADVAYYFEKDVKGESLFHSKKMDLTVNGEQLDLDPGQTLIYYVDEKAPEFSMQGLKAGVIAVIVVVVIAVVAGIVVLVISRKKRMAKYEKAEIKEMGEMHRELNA
Description: flow cytometry on SW480 cells expressing human EpCAM. The method, then:
as §2

T3 sequence (Q1WER1 24-314): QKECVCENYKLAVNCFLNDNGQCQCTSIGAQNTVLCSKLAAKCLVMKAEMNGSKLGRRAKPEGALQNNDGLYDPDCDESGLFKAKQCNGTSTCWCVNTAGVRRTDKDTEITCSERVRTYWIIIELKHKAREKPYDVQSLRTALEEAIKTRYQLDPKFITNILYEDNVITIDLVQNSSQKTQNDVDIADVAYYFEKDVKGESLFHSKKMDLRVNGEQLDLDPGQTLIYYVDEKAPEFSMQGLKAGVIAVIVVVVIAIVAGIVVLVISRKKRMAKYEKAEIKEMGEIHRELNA
T4 sequence (P07766 23-207): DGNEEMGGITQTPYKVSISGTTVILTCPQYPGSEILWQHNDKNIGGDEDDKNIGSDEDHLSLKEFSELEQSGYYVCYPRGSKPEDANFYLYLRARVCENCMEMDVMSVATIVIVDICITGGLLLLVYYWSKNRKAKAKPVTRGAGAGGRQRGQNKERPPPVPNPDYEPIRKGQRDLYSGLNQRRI

B1: ITAB1002 (exemplary EpCAM×CD3 Fab fusion protein) (bispecific antibody)
heavy: EVQLVESGGGLVQPGGSLRLSCAASGFTFSNYWMSWVRQAPGKGLEWVANIKQDGSEKFYADSVKGRFTISRDNAKNSLYLQMNSLRAEDTAVYYCARVGPSWEQDYWGQGTLVTVSAGGGGSGGGGSGGGGSGAQSVLTQPPSVSGAPGQRVTISCTGSSSNIGSYYGVHWYQQLPGTAPKLLIYSDTNRPSGVPDRFSGSKSGTSASLAITGLQAEDEADYYCQSYDKGFGHRVFGGGTKLTVLGGEVQLVESGGGLVQPGGSLRLSCAASGFTFNTYAMNWVRQAPGKGLEWVARIRSKYNNYATYYADSVKDRFTISRDDSKNTLYLQMNSLRAEDTAVYYCVRHGNFGNSYVSWFAYWGQGTMVTVSSASTKGPSVFPLAPSSKSTSGGTAALGCLVKDYFPEPVTVSWNSGALTSGVHTFPAVLQSSGLYSLSSVVTVPSSSLGTQTYICNVNHKPSNTKVDKKVEPKSCPPCS
light: EVQLVESGGGLVQPGGSLRLSCAASGFTFSNYWMSWVRQAPGKGLEWVANIKQDGSEKFYADSVKGRFTISRDNAKNSLYLQMNSLRAEDTAVYYCARVGPSWEQDYWGQGTLVTVSAGGGGSGGGGSGGGGSGAQSVLTQPPSVSGAPGQRVTISCTGSSSNIGSYYGVHWYQQLPGTAPKLLIYSDTNRPSGVPDRFSGSKSGTSASLAITGLQAEDEADYYCQSYDKGFGHRVFGGGTKLTVLGGQAVVTQEPSLTVSPGGTVTLTCRSSTGAVTTSNYANWVQQKPGQAPRGLIGGTNKRAPGTPARFSGSLLGGKAALTLSGVQPEDEAEYYCALWYSNLWVFGGGTKLTVLGQPKAAPSVTLFPPSSEELQANKATLVCLISDFYPGAVTVAWKADSSPVKAGVETTTPSKQSNNKYAASSYLSLTPEQWKSHRSYSCQVTHEGSTVEKTVAPTECPPCS
notes: An anti-EpCAM scFv is fused to the N-terminus of each chain of an anti-CD3 Fab; there is no Fc; also called EpCAM x CD3 Fab fusion protein; ITB1002
For orientation: Kd means the constant that tells how readily two partners part at equilibrium. One may read the EC50 as the concentration at which the effect is half-maximal. In general, EC50 (read off the curve) refers to the concentration at which the effect is half-maximal. A word on the koff: it is a measure of how fast the partners let go of each other. Usually kon stands for a measure of how fast the partners come together. As for B1, the Kd in test [1] turned out to be 15.6 nM; in test [2] it was 4.71 nM; in test [3], 3.49 nM; in test [6] it was 2.49 nM. The half-maximal effective concentration (EC50) in test [4] came to 0.108 µg/mL; in test [7], 0.411 µg/mL. In test [5], the “EC50 (read off the curve)” value was approximately 0.1 µg/mL. The same molecule gave a koff in test [6] of 4.98e-05 s⁻¹. Besides, the on-rate (kon) in test [6] worked out at 20000 M⁻¹ s⁻¹.

B2: ITAB1012 (EpCAM×CD3 Fab fusion protein with a different EpCAM scFv) (bispecific antibody)
heavy: EVQLVESGGGLVQPGGSLRLSCAASGFTFSNYWMSWVRQAPGKGLEWVANIKQDGSEKFYVDSVKGRFTISRDNAKNSLYLQMNSLRAEDMAVYYCARVGGAWELGYWGQGTLVTVSAGGGGSGGGGSGGGGSGAQSVLTQPPSVSGAPGQRVTISCTGSSSNIGSYYGVHWYQQLPGTAPKLLIYSDTNRPSGVPDRFSGSKSGTSASLAITGLQAEDEADYYCQSYDSSLSGRVFGGGTKLTVLGGEVQLVESGGGLVQPGGSLRLSCAASGFTFNTYAMNWVRQAPGKGLEWVARIRSKYNNYATYYADSVKDRFTISRDDSKNTLYLQMNSLRAEDTAVYYCVRHGNFGNSYVSWFAYWGQGTMVTVSSASTKGPSVFPLAPSSKSTSGGTAALGCLVKDYFPEPVTVSWNSGALTSGVHTFPAVLQSSGLYSLSSVVTVPSSSLGTQTYICNVNHKPSNTKVDKKVEPKSCPPCS
light: EVQLVESGGGLVQPGGSLRLSCAASGFTFSNYWMSWVRQAPGKGLEWVANIKQDGSEKFYVDSVKGRFTISRDNAKNSLYLQMNSLRAEDMAVYYCARVGGAWELGYWGQGTLVTVSAGGGGSGGGGSGGGGSGAQSVLTQPPSVSGAPGQRVTISCTGSSSNIGSYYGVHWYQQLPGTAPKLLIYSDTNRPSGVPDRFSGSKSGTSASLAITGLQAEDEADYYCQSYDSSLSGRVFGGGTKLTVLGGQAVVTQEPSLTVSPGGTVTLTCRSSTGAVTTSNYANWVQQKPGQAPRGLIGGTNKRAPGTPARFSGSLLGGKAALTLSGVQPEDEAEYYCALWYSNLWVFGGGTKLTVLGQPKAAPSVTLFPPSSEELQANKATLVCLISDFYPGAVTVAWKADSSPVKAGVETTTPSKQSNNKYAASSYLSLTPEQWKSHRSYSCQVTHEGSTVEKTVAPTECPPCS
notes: Its EpCAM scFv has different HVRs from that of ITAB1002; It has the same anti-CD3 Fab and was transiently expressed; also called EpCAMA×CD3 Fab fusion protein
Regarding B2, in test [6], the dissociation constant (Kd) is 47.8 nM, the dissociation rate constant (koff) came out at 0.00647 s⁻¹ and the kon amounted to 135000 M⁻¹ s⁻¹.
